This note sets out measurements from patent US20240343811A1 (SHANDONG SIMCERE BIOPHARMACUTICAL, published 2024).

Experiment [1] concerns the target T1, human CD16b (NA1), full length, on FlpinCHO cells (human, UniProt O75015 17-200).
T1 construct: also called FlpinCHO-human CD16b (NA1)
T1 chain: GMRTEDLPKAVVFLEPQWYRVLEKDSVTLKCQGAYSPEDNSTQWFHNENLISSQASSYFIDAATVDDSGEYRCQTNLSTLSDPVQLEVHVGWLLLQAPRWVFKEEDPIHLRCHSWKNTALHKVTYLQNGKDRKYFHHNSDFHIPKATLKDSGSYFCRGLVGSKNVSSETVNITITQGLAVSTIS
The experiment in a line: FACS on FlpinCHO cells. Put shortly:
(§1)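 EC50 values come from fitted MFI curves measured by FACS. Antibody dilutions were bound for 1 hour on ice to CD16b-transfected FlpinCHO cells suspended in PBS with 2% BSA blocking solution.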

Experiment [2] addresses T2, human CD16b (NA2), full length, on FlpinCHO cells (human, UniProt O75015 17-200).
T2 construct: also called FlpinCHO-human CD16b (NA2)
T2 chain: T1 chain with R20S, N49S, D66N, V90I
The experiment in a line: FACS on FlpinCHO cells. Summed up: as §1

Experiment [3] concerns the target T3, CD16 on primary human NK cells (human, UniProt P08637 17-254).
T3 construct: whole, on cells; also called resting NK cells
Kind of experiment: FACS on human NK cells, biotinylated antibody.

The target of experiment [4] is T1, human CD16b (NA1), full length, on …. The experiment in a line: FACS on FlpinCHO cells. Put shortly:
as §1

The target in experiment [5] is T2, human CD16b (NA2), full length, on …. Kind of experiment: FACS on FlpinCHO cells. Summed up: as §1
Experiment [6] has as its target human CD16a (158V), full length, on cells (human, UniProt P08637 17-254). Kind of experiment: cell-based or functional assay.
In experiment [7] the target is T4, Human CD16b (NA2)-his (human).
T4 construct: entry holds ECD, linker, His tag and AVI tag
T4 chain: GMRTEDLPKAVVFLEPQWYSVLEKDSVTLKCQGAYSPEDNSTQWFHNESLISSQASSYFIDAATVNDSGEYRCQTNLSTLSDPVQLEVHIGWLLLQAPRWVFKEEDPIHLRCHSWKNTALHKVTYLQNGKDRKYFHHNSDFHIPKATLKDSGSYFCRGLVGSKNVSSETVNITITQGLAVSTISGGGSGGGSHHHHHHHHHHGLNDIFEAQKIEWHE
The experiment in a line: SPR (Biacore), antibody captured on Protein A. Summed up: (§2)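 Protein A–captured antibody was probed with CD16-his ECD in HBS-EP+ at 25 °C: five 2-fold dilutions from 200 nM, 240 s at 30 μL/min, dissociation up to 600 s. Glycine pH 1.5 regenerated the chip. Apparent KD came from a double-referenced 1:1 Langmuir fit.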

Experiment [8] concerns the target T5, Human CD16b (SH)-his (human).
T5 construct: entry holds ECD, linker, His tag and AVI tag
T5 chain: T4 chain with A62D
Kind of experiment: SPR (Biacore), antibody captured on Protein A. Put shortly:
as §2
(In SPR one partner is held on a chip, and binding of the other changes the refractive index at the surface.)

Experiment [9] concerns the target T6, Cynomolgus monkey CD16-his (cynomolgus monkey).
T6 construct: entry holds ECD, AVI tag, linker and His tag; also called cyno CD16-ECD his; Cyno CD16
T6 chain: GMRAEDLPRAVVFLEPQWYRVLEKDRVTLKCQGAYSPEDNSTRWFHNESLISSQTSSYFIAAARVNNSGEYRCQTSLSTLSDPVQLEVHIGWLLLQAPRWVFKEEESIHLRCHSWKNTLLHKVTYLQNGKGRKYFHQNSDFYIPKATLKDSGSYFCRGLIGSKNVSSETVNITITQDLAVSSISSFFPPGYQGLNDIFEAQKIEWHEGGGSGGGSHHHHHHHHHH
Kind of experiment: SPR (Biacore), antibody captured on Protein A. Put shortly:
as §2

Positions count from the first letter of the chain named. Where two headings read alike, the source gives them in different places.

Chain of human CD16a (158V), full length, on cells (P08637 17-254 F176V limits assumed): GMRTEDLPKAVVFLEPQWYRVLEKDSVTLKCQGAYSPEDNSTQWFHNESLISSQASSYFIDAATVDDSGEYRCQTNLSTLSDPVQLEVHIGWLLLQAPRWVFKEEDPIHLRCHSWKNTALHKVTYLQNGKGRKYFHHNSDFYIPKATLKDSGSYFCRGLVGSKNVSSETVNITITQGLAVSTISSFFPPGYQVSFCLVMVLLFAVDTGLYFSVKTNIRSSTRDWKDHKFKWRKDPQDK

B1: VHH06 VHH-Fc antibody (Fc fusion)
chain: EVQLVESGGGLVQAGGSLRLSCVASGSTWTTYAVRWYRQAPGKQREWVAFISVDGSTNYPDSVKGRFIVSRDNAKNTVYLQMNSLKPEDTADYICRVGGQYWGQGTQVTVSSEPKSSDKTHTCPPCPAPEFEGGPSVFLFPPKPKDTLMISRTPEVTCVVVAVSHEDPEVKFNWYVDGVEVHNAKTKPREEQYNSTYRVVSVLTVLHQDWLNGKEYKCKVSNKALPAPIEKTISKAKGQPREPQVYTLPPSREEMTKNQVSLTCLVKGFYPSDIAVEWESNGQPENNYKTTPPVLDSDGSFFLYSKLTVDKSRWQQGNVFSCSVMHEALHNHYTQKSLSLSPGK
As usually defined, the EC50 is the concentration needed to bring the measured effect to its halfway point. With B1, the concentration giving a half-maximal response (EC50) came out at 1.41 nM in experiment [1], 1.42 nM in experiment [3] and 0.74 nM in experiment [4]. Further, the “Maximum mean fluorescence intensity” value in experiment [1] was 33300; in experiment [2], 1930; in [3] it was 69600; in experiment [4], 54100; in experiment [5] it was 468. The binding result in [2] was “no binding (tested: 100 nM)”. Also, the “EC50, activation activity for Jurkat cell” value (from here on “EC50, activation activity”) in experiment [6] was 0.04 nM. The molecule also came in with a Maximum fluorescence value in [6] of 169000.

B2: VHH11 VHH-Fc antibody (Fc fusion)
chain: EVQVVESGGGLAQAGGSLRLSCAVSGITFSSYAMGWYRQDPGKQRELVAAINRFGLTNYADSVKGRFTISRDNAKNTVYLQMTSLKPEDTAVYYCNTGGVYSHPNYYTGTYWGQGTQVTVSSEPKSSDKTHTCPPCPAPEFEGGPSVFLFPPKPKDTLMISRTPEVTCVVVAVSHEDPEVKFNWYVDGVEVHNAKTKPREEQYNSTYRVVSVLTVLHQDWLNGKEYKCKVSNKALPAPIEKTISKAKGQPREPQVYTLPPSREEMTKNQVSLTCLVKGFYPSDIAVEWESNGQPENNYKTTPPVLDSDGSFFLYSKLTVDKSRWQQGNVFSCSVMHEALHNHYTQKSLSLSPGK
In general, Kd refers to the concentration at which binding is half-saturated. As a reminder, the koff is the first-order rate constant of dissociation. What is called kon is a measure of how fast the partners come together. Consider B2, for which, in experiment [7], binding was characterised by a dissociation constant (Kd) of 4920 nM, the dissociation rate constant (koff) was found to be 0.2 s⁻¹ and the association rate constant (kon) worked out at 40700 M⁻¹ s⁻¹. In [8], this molecule registered a Kd of 4930 nM, an off-rate constant (koff) of 0.193 s⁻¹ and a kon of 39100 M⁻¹ s⁻¹. Besides, in experiment [9], the Kd is 23.6 nM, the koff was determined as 0.015 s⁻¹ and the on-rate (kon) was 633000 M⁻¹ s⁻¹. In addition, in experiment [1], the EC50 worked out at 1.03 nM and the “Maximum mean fluorescence intensity” value is 37900. Besides, in experiment [2], the EC50 is 1.43 nM and the “Maximum mean fluorescence intensity” value was determined as 56900. Moreover, in [3], the EC50 was found to be 0.95 nM and the “Maximum mean fluorescence intensity” value stood at 60700. Further, in experiment [6], the “EC50, activation activity” value was 0.03 nM and the Maximum fluorescence value turned out to be 166000.

B3: VHH12 VHH-Fc antibody (Fc fusion)
chain: B2 chain with E1Q, V4L, A12V, V24A, D40A, S62F, D72V, N105D
Regarding B3, the Kd in [7] is 1050 nM; in experiment [8] it was 1160 nM; in experiment [9], 8.51 nM. Further, the koff in experiment [7] was determined as 0.0998 s⁻¹; in experiment [8], 0.106 s⁻¹; in experiment [9], 0.0101 s⁻¹. Moreover, the results for the association rate constant (kon) in experiment [7], in experiment [8] and in [9] were 95100 M⁻¹ s⁻¹, 91500 M⁻¹ s⁻¹ and 1.18e+06 M⁻¹ s⁻¹, respectively. The concentration giving a half-maximal response (EC50) was found to be 0.62 nM in experiment [1], 0.96 nM in experiment [2], 0.4 nM in experiment [3] and 0.7 nM in [4]. Also, the “Maximum mean fluorescence intensity” value was 58100 in experiment [1]; 79100 in experiment [2]; 46500 in [3]; 60500 in [4]; 87900 in experiment [5]. The “EC50, activation activity” value in experiment [6] worked out at 0.02 nM. Also, in [6], the Maximum fluorescence value came out at 165000.
